Experimental data from US20160130552A1.

Target: RGD-recognizing receptors of monocytes
Assay: cell-based or functional assay

RGDS [Small RGD peptides containing the amino-acid sequence Arg-Gly-Asp-Ser]
decrease in long-duration monocyte-platelet interactions under flow: 44%
